The values that follow come from US20180148504A1 (EISAI R AND D MANAGEMENT, published 2018).

For test [1], the target named is T1, human folate receptor beta (FRβ), recombinant, C-terminal 6xHis (human, UniProt P14207 17-230, limits assumed).
T1 construct: Transiently expressed in 293F cells and purified; coated on ELISA plates
Nature of the test: direct ELISA, plates coated with 1 µg/mL FR isoform, dilution series of culture supernatant.

Test [2] deals with T2, human folate receptor gamma (FRγ), recombinant, C-terminal 6xHis (human, UniProt P41439 23-245, limits assumed).
T2 construct: Transiently expressed in 293F cells and purified; coated on ELISA plates
T2 sequence (P41439 other isoform, or with tags, fused parts or gaps limits assumed): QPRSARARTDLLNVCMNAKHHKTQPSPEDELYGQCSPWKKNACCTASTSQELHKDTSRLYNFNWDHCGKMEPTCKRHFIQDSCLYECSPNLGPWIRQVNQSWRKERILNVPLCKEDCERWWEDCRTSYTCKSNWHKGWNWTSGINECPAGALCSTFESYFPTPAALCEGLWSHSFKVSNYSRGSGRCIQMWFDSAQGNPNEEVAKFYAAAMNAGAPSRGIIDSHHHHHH
The test is described as above.

Test [3] deals with T3, recombinant purified FRα (ECL assay calibrator) (human, UniProt P15328 25-234).
T3 construct: Calibrator of the ECL sandwich assays; also called FRα calibrator; FRα standard
T3 sequence (P15328 25-234 limits assumed): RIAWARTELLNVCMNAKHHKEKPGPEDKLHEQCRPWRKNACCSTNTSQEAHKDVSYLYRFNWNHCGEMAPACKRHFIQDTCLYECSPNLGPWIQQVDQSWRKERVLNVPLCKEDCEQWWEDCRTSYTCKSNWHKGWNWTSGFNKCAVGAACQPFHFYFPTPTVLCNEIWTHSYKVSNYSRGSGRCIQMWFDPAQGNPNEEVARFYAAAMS
Nature of the test: ECL sandwich on FRα, signal to background; capture 28H12.G9; binder = detection Ab.

Test [4] has as its target T3, recombinant purified FRα (ECL assay …). Nature of the test: ECL sandwich, FRα calibrator; capture 26A9.C4; binder = detection Ab.
Test [5] shares this target. Briefly: ECL sandwich on FRα, signal to background; capture 24H8.D3; binder = detection Ab.
For test [6] the target is unchanged. Briefly: ECL sandwich on FRα, signal to background; capture 1A8.G11.E7; binder = detection Ab.
For test [7] the target is unchanged. Nature of the test: ECL sandwich on FRα, signal to background; capture 24H8.F3; binder = detection Ab.
Test [8] has the same target. Briefly: ECL sandwich on FRα, signal to background; capture 19D4.B7; binder = detection Ab.
Test [9] shares this target. Nature of the test: ECL sandwich, FRα calibrator; capture 30G6.G6.G4.E9; binder = detection Ab.
For test [10] the target is unchanged. Nature of the test: ECL sandwich on FRα, signal to background; capture 19D2.G9; binder = detection Ab.
Test [11] shares this target. Nature of the test: ECL sandwich on FRα, signal to background; capture 1C6.E12.G8; binder = detection Ab.
Test [12] has the same target. Briefly: ECL sandwich, FRα calibrator; capture 2F11.F8; binder = detection Ab.
Test [13] has the same target. Briefly: ECL sandwich, FRα calibrator; capture 28H12.G9; binder = detection Ab.
Test [14] shares this target. Briefly: ECL sandwich on FRα, signal to background; capture 6A2.G7; binder = detection Ab.
Test [15] shares this target. Briefly: ECL sandwich, FRα calibrator; capture 6A2.G7; binder = detection Ab.
The target is the same in test [16]. Nature of the test: ECL sandwich, FRα calibrator; capture 1D2.G8.G10; binder = detection Ab.
Test [17] has the same target. Nature of the test: ECL sandwich on FRα, signal to background; capture 5C12.H8; binder = detection Ab.
Test [18] has the same target. Briefly: ECL sandwich, FRα calibrator; capture 24H8.F3; binder = detection Ab.
Test [19] shares this target. Briefly: ECL sandwich on FRα, signal to background; capture 1D2.G8.G10; binder = detection Ab.
Test [20] shares this target. Briefly: ECL sandwich on FRα, signal to background; capture 30G6.G6.G4.E9; binder = detection Ab.
For test [21] the target is unchanged. Briefly: ECL sandwich, FRα calibrator; capture 5C12.H8; binder = detection Ab.
For test [22] the target is unchanged. Briefly: ECL sandwich on FRα, signal to background; capture 26A9.C4; binder = detection Ab.
For test [23] the target is unchanged. Nature of the test: ECL sandwich on FRα, signal to background; capture 2F11.F8; binder = detection Ab.
Test [24] shares this target. Nature of the test: ECL sandwich, FRα calibrator; capture 19D4.B7; binder = detection Ab.
For test [25] the target is unchanged. Briefly: ECL sandwich, FRα calibrator; capture 24H8.D3; binder = detection Ab.
The target is the same in test [26]. Nature of the test: ECL sandwich, FRα calibrator; capture 19D2.G9; binder = detection Ab.
For test [27] the target is unchanged. Nature of the test: ECL sandwich, FRα calibrator; capture 1A8.G11.E7; binder = detection Ab.
Test [28] shares this target. Nature of the test: ECL sandwich, FRα calibrator; capture 1C6.E12.G8; binder = detection Ab.

T1 sequence (P14207 other isoform, or with tags, fused parts or gaps limits assumed): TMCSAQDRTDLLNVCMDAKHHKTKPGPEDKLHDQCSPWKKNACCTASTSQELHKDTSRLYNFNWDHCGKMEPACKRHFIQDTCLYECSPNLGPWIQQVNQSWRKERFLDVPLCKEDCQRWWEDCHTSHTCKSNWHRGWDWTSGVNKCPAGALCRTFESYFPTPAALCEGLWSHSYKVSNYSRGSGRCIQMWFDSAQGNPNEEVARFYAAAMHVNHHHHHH

B1: Monoclonal antibody 30G6.G6.G4.E9 (antibody, mouse IgG1, V domains shown)
VH: GPGLVAPSQSLSITCTVSGFSLTSYGVHWVRQPPGKGLEWLGVIWAGGITNYNSALMSRLSISKDNSKSQVFLKMNSLQTDDTAMYYCARIYYDYDAWFAYWGQGTLVTVSA
VL: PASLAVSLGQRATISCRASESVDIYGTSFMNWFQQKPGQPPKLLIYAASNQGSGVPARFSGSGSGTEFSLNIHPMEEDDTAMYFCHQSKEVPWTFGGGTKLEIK
notes: Murine IgG1 kappa from hybridoma; also called ATCC PTA-123096
Turning to B1, the binding result in test [1] and in [2] was “no binding” throughout.

B2: Monoclonal antibody 19D4.B7 (antibody, mouse IgG2a, V domains shown)
VH: GARELVKPGASVKLSCTASGFNIKHPYMHWVKQRPDQGLEWIGRIDPANGNTKYDPKFQGKATITADTSSNTAYLQLSSLTSEDTAVYYCGREEVADYTMDYWGQGTSVTVSS
VL: PASLAVSLGQRATISCRASESVDTYGNNFIHWYQQKPGQPPKLLIYLASNLESGVPARFSGSGSRTDFTLTIDPVEADDAATYYCQQNNGDPWTFGGGTKLEIKR
notes: SULFO-TAG conjugated when used as detection antibody in the ECL assay; also called ATCC PTA-11884
Regarding B2, the “Average of S/B” value came to 17 in [3]; 361 in [5]; 405 in test [6]; 207 in [7]; 1 in test [8]; 560 in test [10]. The “Average of S/B” value in [11] amounted to 28; in test [14], 82; in [17], 5; in test [19] it was 29; in test [20] it was 1; in test [22], 34. In test [23], the “Average of S/B” value stood at 17. The “Specific signal at 500 pg/mL” value in [4] turned out to be 2630; in [9], 81; in test [12], 1260; in test [13], 1220; in test [15], 4960; in test [16], 1970. Also, the “Specific signal at 500 pg/mL” value in test [18] came out at 19100; in test [21], 320; in [24] it was 87; in test [25], 49100; in test [26], 65500; in [27], 58700. The “Specific signal at 500 pg/mL” value in [28] amounted to 2020.

B3: Monoclonal antibody 26A9.C4 (antibody, mouse IgG1, V domains shown)
VH: SGARELVKPGASVKLSCKTSGFTFSSSFISWLKQKPGQSLEWIAWIYGGNGGTSYNQNFTGKAQLTVDTSSSTAYMQFSSLTTEDSAVYYCASETYGNYWYFDVWGAGTTVTVSS
VL: QSPASLSASVGDTVTITCRASGNIHNYLAWYQQKQGKSPQLLVYNAKTLADGVPSRFSGSGSGTQYSLKINSLQPEDFGNYYCQHFWSTPYTFGGGTKLEIK
notes: Murine IgG1 kappa from hybridoma; also called ATCC PTA-123092
For B3, the binding result in [1] and in test [2] was “no binding” in each case. Besides, the “Average of S/B” value in test [3] is 1; in test [5], 1; in test [6], 1; in [7], 1; in test [8], 250; in [10], 1. Further, the “Average of S/B” value was 1 in test [11]; 6 in [14]; 1 in test [17]; 1 in [19]; 114 in test [20]; 1 in test [22]. Also, in test [23], the “Average of S/B” value came to 1. The “Specific signal at 500 pg/mL” value in [4] stood at 79; in [9], 6710; in [12], 61; in test [13], 62; in test [15], 361; in [16], 64. Moreover, the “Specific signal at 500 pg/mL” value came out at 56 in test [18]; 68 in [21]; 16500 in [24]; 59 in test [25]; 79 in test [26]; 62 in test [27]. Further, in test [28], the “Specific signal at 500 pg/mL” value is 58.

B4: Monoclonal antibody 2F11.F8 (antibody, mouse IgG1, V domains shown)
VH: ESGPGLVKPSQSLSLTCSVTGYSITSGYYWIWIRQFPGNKLEWMGYINYDGSNNYNPSLKNRISITRDTSKNQFFLKLNSVTTEDTATYYCARGNYYAMDYWGQGTSVTVSS
VL: not shown
notes: Murine IgG1 kappa from hybridoma; also called ATCC PTA-123098 (so in the source)
For the molecule B4, the binding result in test [1] and in test [2] was “no binding” throughout. Further, the “Average of S/B” value in test [3] was 1; in test [5] it was 1; in test [6], 1; in [7], 1; in test [8] it was 338; in test [10], 1. The “Average of S/B” value in test [11] amounted to 1; in [14] it was 23; in test [17] it was 1; in test [19] it was 1; in [20], 81; in test [22], 1. Further, the “Average of S/B” value in [23] was 1. The “Specific signal at 500 pg/mL” value in test [4] was 69; in test [9], 6790; in [12], 179; in test [13], 73; in test [15], 1180; in test [16], 60. Moreover, the “Specific signal at 500 pg/mL” value is 54 in test [18]; 53 in [21]; 26500 in test [24]; 59 in test [25]; 71 in [26]; 65 in test [27]. Moreover, the “Specific signal at 500 pg/mL” value in test [28] turned out to be 56.
